Assay results taken from the supplement of paper PMC9170038.

System: MS2 coat protein
Test: apparent KD of MS2 coat protein; designed switch direction (-1 OFF switch, 1 ON switch): -1; higher = weaker reporter binding
Method in brief: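 RNA switches sharing common flanks were transcribed by stalled E. coli RNA polymerase on Illumina chips. A doubling series of SNAP-549-labelled MS2 coat protein, from 0.7 or 1.5 nM to 3 µM, was applied in Tris-HCl pH 7.5 buffer with KCl, MgCl2, BSA, DTT, tRNA and Tween-20. Each step lasted 0.8–1.5 h at the bottom of the series and 10–20 min at the top. Normalised cluster fluorescence was curve-fitted, giving apparent KD as the per-design median over clusters.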

[1] = Eterna round: R95, input ligand: microRNA oligo, concentration not stated
[2] = input ligand: microRNA oligo, concentration not stated
[3] = Eterna round: R95, input ligand: FMN 200 uM
[4] = Eterna round: R95, input ligand: none

Sequence	apparent KD of MS2 coat protein (input ligand: FMN 200 uM)	apparent KD of MS2 coat protein (input ligand: none)	apparent KD of MS2 coat protein [1]	apparent KD of MS2 coat protein [2]	apparent KD of MS2 coat protein [3]	apparent KD of MS2 coat protein [4]
UUCACAUGGACAUAAGAUCACAUGAGGAUCACCCAUGUGAAUAACAAGCUUUUUGCUCGUCUUAUGUCCAAUAAUAA [Stov1/14-A1] (Eterna round: R97, puzzle: Sensor, turn-off variant 1)	14.1 nM	12.2 nM	–	–	–	–
AAUAACAGAGGAUAUACUAUUUUAUGUGUUUGUUAUUUUGAACAUGAGGAUCACCCAUGUAGAAGGCUGAAUAA [JMF 22] (puzzle: Exclusion 2)	–	–	21.7 nM	–	–	–
AACAGUCUGGAGGAUAUGCUGGAUAAAUAUCUGGCAGAAGGCUGGACAUGAGGAUCACCCAUGUAAAUACUACC [Omei Ex6 A2b] (Eterna round: R97, puzzle: Exclusion 6)	54.5 nM	24.9 nM	–	–	–	–
CCGCCAUGAGGAUAUCCAUCUGGAUCAGACAAGAUCCUGAUGGAGAAGGGACAUGAGGAUCACCCAUGUUGCGG [Mat - Exclusion 4 - Eli Mod - D55] (Eterna round: R97, puzzle: Exclusion 4)	60.4 nM	60 nM	–	–	–	–
UAUAUAUAGUAAGGAUAUGUAUAUAUUGUAUAAACAGAAGGUACUGACAUGAGGAUCACCCAUGUUUUAGUGUGGGCAUGUAGA [JMF's solution 61] (Eterna round: R96, puzzle: Exclusion NG 1)	–	–	–	57.5 nM	–	–
GGAAGGUGAGGAUAUACUAAGCCGGAAACGGCAGGUGAGAGACAUGAGGAUCACCCAUGUAGAAGGCACGGAGA [AK-MS2ROC-r4-exclusion2-17] (Eterna round: R97, puzzle: Exclusion 2)	291 nM	85.5 nM	–	–	–	–
CUUUUGUGAGGAUAUUAGUAGUAAAUUAAUAAAAUUACUACUGAGAAGGCACAUGAGGAUCACCCAUGUUCCUC [salish99_ex4_r3_054] (puzzle: Exclusion 4)	–	–	39.7 nM	–	–	–
AAAUAGCUAGAGGAUAUCGGAUAGGAUUUACUACGAGAAGGUUAGACAUGAGGAUCACCCAUGUUGUGUUGGGA [EX6 #19] (Eterna round: R97, puzzle: Exclusion 6)	59.6 nM	67.9 nM	–	–	–	–
CUUUUGUGAGGAUAUUAGUAGUAAAUAAAUAAAAUUACUACUUAGAAGGCACAUGAGGAUCACCCAUGUUCCUC [salish99_ex4_r3_043] (Eterna round: R96, puzzle: Exclusion 4)	238 nM	29.6 nM	–	25.8 nM	–	–
AUAAAAUAGGAGGAUAUCGUAUCGGAAACGAUACGAGAAGGUCUAACAUGAGGAUCACCCAUGUUCCUCAAUAA [Mat - Exclusion 6 - Eli Mod - D46] (puzzle: Exclusion 6)	–	–	36.3 nM	–	142 nM	37.6 nM
CUCAUGUGAGGAUAUGUGAUCAACCUUCUAUAUAGAUGAUUACAGAAGGCACAUGAGGAUCACCCAUGUAGAUC [Ex4 - 3 - 23] (puzzle: Exclusion 4)	–	–	21.1 nM	–	–	–
UUGCAGUCGUCAGGAUAUAGUAUUACGGCCUUUCAUUUCUUCAUACAUGAGGAUCACCCAUGUCGCUAGAAGGGAUUAUCGAUU [salish99_ExNG2_r04_106] (Eterna round: R96, puzzle: Exclusion NG 2)	16 nM	23 nM	–	17.1 nM	–	–
GGGUGUGAAGGAUAUACAUGAGGAUCACCCAUGUGAGAGGAGGAGGUUGAGGAGGUUGGUAGAAGGUCAGGAGG [JR_Exclusion3_Sub011] (Eterna round: R96, puzzle: Exclusion 3)	219 nM	220 nM	–	149 nM	–	–
UUUUGACAAGCGAGAUCCUACAUGAGGAUCACCCAUGUUGACCAUGGUUUCCAUGGUCUUUUUGCUCGUCUUGUGUG [jl TITIN mod 4] (Eterna round: R97, puzzle: Sensor, turn-off variant 1)	21.5 nM	21.8 nM	–	–	–	–
AACAUGUGAGGAUAUUAUCACAAAGGCGUAGAAAUACGCGAUAAGAAGGCACAUGAGGAUCACCCAUGUUCCGA [EX4 A.24] (Eterna round: R97, puzzle: Exclusion 4)	66.8 nM	17.5 nM	–	–	–	–
CCAUAUAACUGAGGAUAUCAUCGCCACUGACGUUGAGAAGGCAGACAUGAGGAUCACCCAUGUGAUUUCUCAAUAUUAUACAUC [Prohibition 79 - Jieux - Exclusion NG 1] (Eterna round: R96, puzzle: Exclusion NG 1)	118 nM	40 nM	–	33.8 nM	–	–
UUUAAUUUUUUUUUUUUACAAGCUUUUUGCUCGUCUUAUACAUGAGGAUCACCCAUGUGAGUGGAGGGUAAAUUAUC [JMF 88] (puzzle: Sensor v3, turn-off variant 2)	–	–	45.8 nM	–	17.8 nM	16.3 nM
